Assay results as given in the supplement of paper PMC9112550, “Optimization of the antimicrobial peptide Bac7 by deep mutational scanning” (BMC Biology, 2022).

Test system: Escherichia coli TOP10
Assay: shrunken log2 fold change of peptide-encoding DNA abundance (4.5 h post-induction vs induction); higher = less antimicrobial activity (less host growth inhibition)
Conditions: time post-induction: 4.5 h; library: site-saturation at positions 5, 18, 19, 20
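Note: peptides expressed intracellularly from a pBAD plasmid library in pooled LB shake-flask culture, induced with 0.3% L-arabinose, DNA abundance read by NGS, three biological replicates, DESeq2 with apeglm shrinkage.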

Sequence | shrunken log2 fold change
RRIRARPPRLPRPRPRPCTCPRP | -0.199
RRIRARPPRLPRPRPRPCVGPRP | 2.43
RRIRARPPRLPRPRPRPCVWPRP | 0.544
RRIRARPPRLPRPRPRPCYRPRP | -0.141
RRIRARPPRLPRPRPRPDAGPRP | 0.94
RRIRARPPRLPRPRPRPDCFPRP | 0.715
RRIRARPPRLPRPRPRPDCRPRP | 0.0473
RRIRARPPRLPRPRPRPDDSPRP | 0.124
RRIRARPPRLPRPRPRPDFDPRP | 1.07
RRIRARPPRLPRPRPRPDFHPRP | -0.0502
RRIRARPPRLPRPRPRPDFKPRP | 0.00723
RRIRARPPRLPRPRPRPDFLPRP | 0.257
RRIRARPPRLPRPRPRPDFSPRP | 0.000254
RRIRARPPRLPRPRPRPDHAPRP | -0.0131
RRIRARPPRLPRPRPRPDHCPRP | 0.063
RRIRARPPRLPRPRPRPDICPRP | 0.307
RRIRARPPRLPRPRPRPDIMPRP | 0.0619
RRIRARPPRLPRPRPRPDLMPRP | 0.354
RRIRARPPRLPRPRPRPDLVPRP | 0.249
RRIRARPPRLPRPRPRPDMEPRP | -0.0243
RRIRARPPRLPRPRPRPDMGPRP | -0.0014
RRIRARPPRLPRPRPRPDMIPRP | -0.0395
RRIRARPPRLPRPRPRPDMWPRP | 0.422
RRIRARPPRLPRPRPRPDPGPRP | 0.29
RRIRARPPRLPRPRPRPDPSPRP | 0.508
RRIRARPPRLPRPRPRPDQGPRP | 0.261
RRIRARPPRLPRPRPRPDQHPRP | 0.0116
RRIRARPPRLPRPRPRPDQWPRP | 0.493

Sequence | shrunken log2 fold change
RRIRARPPRLPRPRPRPDRHPRP | 0.0379
RRIRARPPRLPRPRPRPDRKPRP | 0.0521
RRIRARPPRLPRPRPRPDRNPRP | -0.066
RRIRARPPRLPRPRPRPDTLPRP | -0.0794
RRIRARPPRLPRPRPRPDTWPRP | 1.13
RRIRARPPRLPRPRPRPDVEPRP | 0.389
RRIRARPPRLPRPRPRPDWAPRP | 0.524
RRIRARPPRLPRPRPRPDWTPRP | 0.0425
RRIRARPPRLPRPRPRPDYSPRP | 0.00409
RRIRARPPRLPRPRPRPEAPPRP | 1.11
RRIRARPPRLPRPRPRPEAWPRP | -0.00193
RRIRARPPRLPRPRPRPEDDPRP | 0.306
RRIRARPPRLPRPRPRPEDVPRP | 0.931
RRIRARPPRLPRPRPRPEEQPRP | 1.97
RRIRARPPRLPRPRPRPEFAPRP | 0.727
RRIRARPPRLPRPRPRPEFIPRP | -0.189
RRIRARPPRLPRPRPRPEGEPRP | 1.39
RRIRARPPRLPRPRPRPEGGPRP | 0.872
RRIRARPPRLPRPRPRPEGPPRP | 0.577
RRIRARPPRLPRPRPRPEHAPRP | 0.564
RRIRARPPRLPRPRPRPEHCPRP | 0.0263
RRIRARPPRLPRPRPRPELYPRP | 0.428
RRIRARPPRLPRPRPRPEMQPRP | 1.66
RRIRARPPRLPRPRPRPENWPRP | 0.569
RRIRARPPRLPRPRPRPEPGPRP | 0.98
RRIRARPPRLPRPRPRPEPSPRP | 1.22
RRIRARPPRLPRPRPRPEQRPRP | 0.2
